The target of this data set is T1, αSyn fibrils (Homo sapiens, UniProt P37840).
T1 construct: made in house
The data set can be described thus: Filter trap (cellulose acetate filter retardation) assay of ATTO488-labelled Hsc70 and subdomains binding to αSyn fibrils. Particulars: labelled:unlabelled 1:50, 0–2 μM (domains 0–5 μM), αSyn fibrils 1 μM, PBS, 1h RT, fluorescence, filtered in triplicate, 2 to 3 independent experiments, read-out: KD of ATTO488-labelled polypeptides for αSyn fibrils. As for the experimental part:
The KD for Hsc70, SBD, SBDβ and SBD-lid interaction with αSyn fibrils were measured as follow. Hsc70 and its subdomains were first labeled by addition of the aminoreactive fluorescent dye ATTO488 (Invitrogen, Carlsbad, CA, USA) using a protein:dye molar ratio of 1:5. The reaction was stopped by adding Tris-HCl pH 7.5 (20 mM final concentration). The unreacted fluorophore was removed by NAP5 desalting column. Under these conditions the majority of primary amines unaffected by the labelling as 0.05 to 0.08 dye molecules were incorporated on average within Hsc70 or its subdomains, as assessed by absorbance spectroscopy. Binding of ATTO488-labeled polypeptides to fibrillar αSyn was then followed by a filter retardation assay where fibrils and associated proteins are retained on a membrane. The different ATTO488-labeled polypeptides were diluted with their unlabeled counterpart (labeled:unlabeled polypeptides ratio of 1:50) at different final concentrations (0–2 μM) and incubated with or without αSyn fibrils (1 μM) in PBS for 1h at RT. 200 μl of each sample were filtered in triplicate through cellulose acetate membranes (0.2 μm pore size, Millipore Corp., Bedford, MA) using a 48-slot slot-blot filtration apparatus (GE Healthcare). The amount of labeled polypeptide retained on the membrane was visualized using a ChemiDocTM MP (BioRad). Images were processed and quantified using Image Lab.

Consider “Hsc70-ATTO488: Hsc70 labeled with the aminoreactive fluorescent dye ATTO488”, for which the Kd amounted to 490 ± 20 nM.

Broadly, the Kd is the free concentration of one partner at which half of the binding sites on the other are occupied at equilibrium, for simple one-to-one binding.
